Columns and labels:
HveA on CHO-HveA cells = HveA on CHO-HveA cells (UniProt Q92956); test: cell-based or functional assay
HveC on CHO-HveC cells = HveC on CHO-HveC cells (UniProt Q15223); test: cell-based or functional assay
Sequence of HveC on CHO-HveC cells (Q15223 31-517 limits assumed): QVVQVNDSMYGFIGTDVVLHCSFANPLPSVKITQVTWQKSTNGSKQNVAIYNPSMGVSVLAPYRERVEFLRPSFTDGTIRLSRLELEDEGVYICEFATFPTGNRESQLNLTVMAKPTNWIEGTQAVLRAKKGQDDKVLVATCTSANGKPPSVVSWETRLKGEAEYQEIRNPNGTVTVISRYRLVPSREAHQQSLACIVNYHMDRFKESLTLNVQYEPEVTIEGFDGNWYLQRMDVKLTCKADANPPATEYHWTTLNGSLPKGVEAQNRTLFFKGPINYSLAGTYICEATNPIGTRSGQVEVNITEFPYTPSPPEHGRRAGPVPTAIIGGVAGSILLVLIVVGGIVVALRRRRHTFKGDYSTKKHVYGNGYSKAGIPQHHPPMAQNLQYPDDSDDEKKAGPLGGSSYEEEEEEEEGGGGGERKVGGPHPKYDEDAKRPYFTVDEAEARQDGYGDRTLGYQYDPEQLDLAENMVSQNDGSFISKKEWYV

Sequence of HveA on CHO-HveA cells (Q92956 39-283 limits assumed): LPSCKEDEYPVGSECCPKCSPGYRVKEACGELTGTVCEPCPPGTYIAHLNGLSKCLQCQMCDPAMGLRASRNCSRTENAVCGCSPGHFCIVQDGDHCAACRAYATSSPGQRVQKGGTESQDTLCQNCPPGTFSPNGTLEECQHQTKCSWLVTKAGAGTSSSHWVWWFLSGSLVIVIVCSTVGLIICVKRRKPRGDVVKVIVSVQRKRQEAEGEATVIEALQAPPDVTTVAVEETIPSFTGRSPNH

Substance	% Complementation, CHO-HveA (HveA on CHO-HveA cells)	% Complementation, CHO-HveC (HveC on CHO-HveC cells)
gD A7H (ligand)	80%	100%
gD A7L (ligand)	0%	100%
gD A7R (ligand)	0%	98%
gD D6A (ligand)	0%	99%
gD D6L (ligand)	0%	98%
gD D26H (from UniProt A1Z0Q5 26-394) (ligand)	10%	11%
gD D26S (ligand)	20%	7%
gD D26V (ligand)	0%	26%
gD D30H (from UniProt A1Z0Q5 26-394) (ligand)	0%	6%
gD D30I (ligand)	0%	4%
gD D30V (ligand)	0%	8%
gD G33L (from UniProt A1Z0Q5 26-394) (ligand)	9%	79%
gD H39Q (ligand)	50%	100%
gD H39V (ligand)	75%	66%
gD I40A (ligand)	0%	0%
gD I40N (from UniProt A1Z0Q5 26-394) (ligand)	0%	0%
gD K1D (ligand)	100%	100%
gD L9A (ligand)	0%	100%
gD L9P (ligand)	0%	100%
gD L9R (ligand)	0%	97%
gD L25D (from UniProt A1Z0Q5 26-394) (ligand)	0%	14%
gD L25H (from UniProt A1Z0Q5 26-394) (ligand)	0%	12%
gD L25I (from UniProt A1Z0Q5 26-394) (ligand)	0%	5%
gD L25T (from UniProt A1Z0Q5 26-394) (ligand)	0%	3%
gD L28C (ligand)	0%	100%
gD L28F (ligand)	0%	41%
gD L28G (ligand)	0%	100%
gD L28P (ligand)	0%	69%

Substance	% Complementation, CHO-HveA (HveA on CHO-HveA cells)	% Complementation, CHO-HveC (HveC on CHO-HveC cells)
gD L28S (ligand)	0%	83%
gD L44C (ligand)	69%	83%
gD L44G (ligand)	0%	8%
gD L44P (ligand)	53%	71%
gD P31G (from UniProt A1Z0Q5 26-394) (ligand)	0%	100%
gD P32H (from UniProt A1Z0Q5 26-394) (ligand)	6%	100%
gD Q27G (ligand)	0%	0%
gD Q27H (ligand)	0%	14%
gD Q27P (rid1) (ligand)	0%	83%
gD Q27S (ligand)	0%	9%
gD Q27T (ligand)	0%	0%
gD Q41P (ligand)	0%	18%
gD R36A (from UniProt A1Z0Q5 26-394) (ligand)	0%	0%
gD R36D (from UniProt A1Z0Q5 26-394) (ligand)	0%	0%
gD R36I (from UniProt A1Z0Q5 26-394) (ligand)	0%	0%
gD S8A (ligand)	40%	100%
gD S8L (ligand)	0%	99%
gD T29G (ligand)	0%	100%
gD T29Y (ligand)	0%	100%
gD^-R (gD A5I) (ligand)	85%	100%
gDΔ2-5 (ligand)	0%	95%
gDΔ6-9 (ligand)	0%	100%
gDΔ6-24:GSK (ligand)	0%	19%
gDΔ10-16 (ligand)	0%	100%
gDΔ17-21 (ligand)	0%	100%
gDΔ21-24 (ligand)	0%	100%
wild-type gD (HSV-1 strain KOS) (ligand)	100%	100%

— US20020090382A1, “Antiviral compounds and methods” (University of Pittsburgh of the Commonwealth System of …, priority 2000, published 2002)
